Experimental findings from paper PMC9452783, “PLK1-mediated phosphorylation of PPIL2 regulates HR via CtIP” (Frontiers in Cell and Developmental Biology, 2022) are described below.

B2: His-PPIL2 241-520 (E. coli, purified) (domain or fragment, UniProt Q13356 241-520, looked up)
chain: YSTGKVSASFTSTAMVPETTHEAAAIDEDVLRYQFVKKKGYVRLHTNKGDLNLELHCDLTPKTCENFIRLCKKHYYDGTIFHRSIRNFVIQGGDPTGTGTGGESYWGKPFKDEFRPNLSHTGRGILSMANSGPNSNRSQFFITFRSCAYLDKKHTIFGRVVGGFDVLTAMENVESDPKTDRPKEEIRIDATTVFVDPYEEADAQIAQERKTQLKVAPETKVKSSQPQAGSQGPQTFRQGVGKYINPAATKRAAEEEPSTSATVPMSKKKPSRGFGDFSSW
notes: source: E. coli BL21, purified (Ni-NTA)

The target in assay [1] is B2. Description: pull-down; GST pull-down with purified GST-ZNF830 (full length or fragments) and His-PPIL2 (full length or fragments) expressed in E. coli; western blot and Coomassie brilliant blue. The settings on record: both partners purified.
Assay [2] has as its target T1, GST-ZNF830 (E. coli, purified) (UniProt Q96NB3 1-372).
T1 construct: ZNF830, full length, GST-tagged (pGEX6T-1); also called GST-tagged ZNF830; source: E. coli BL21, purified (glutathione-Sepharose 4B)
T1 sequence (looked up): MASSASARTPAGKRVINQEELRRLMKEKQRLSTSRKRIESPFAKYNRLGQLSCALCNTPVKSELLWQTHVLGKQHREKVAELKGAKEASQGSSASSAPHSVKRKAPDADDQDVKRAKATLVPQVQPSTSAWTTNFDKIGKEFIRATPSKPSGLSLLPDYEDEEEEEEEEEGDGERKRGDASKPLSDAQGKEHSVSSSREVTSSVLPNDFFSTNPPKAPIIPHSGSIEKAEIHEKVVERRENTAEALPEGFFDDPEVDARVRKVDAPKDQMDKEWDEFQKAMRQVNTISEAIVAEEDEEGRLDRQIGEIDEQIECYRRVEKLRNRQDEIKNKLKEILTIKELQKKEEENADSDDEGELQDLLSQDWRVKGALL
The description is as above. The settings on record: both partners purified.

B1: GST-ZNF830 151-372 (E. coli, purified) (domain or fragment, UniProt Q96NB3 151-372, looked up)
chain: SGLSLLPDYEDEEEEEEEEEGDGERKRGDASKPLSDAQGKEHSVSSSREVTSSVLPNDFFSTNPPKAPIIPHSGSIEKAEIHEKVVERRENTAEALPEGFFDDPEVDARVRKVDAPKDQMDKEWDEFQKAMRQVNTISEAIVAEEDEEGRLDRQIGEIDEQIECYRRVEKLRNRQDEIKNKLKEILTIKELQKKEEENADSDDEGELQDLLSQDWRVKGALL
notes: source: E. coli BL21, purified (glutathione-Sepharose 4B)
Regarding B1, in assay [1], the binding result is given as “binds”.

For B2, the binding result in assay [2] is recorded as “binds”.
